# Target: GLI3 (His-tagged; probably zinc-finger fragment) (UniProt P10071 480-632)
# Assay: EMSA; dose-dependent shift; 5 mM MgCl2; EMSA: 20 mM Tris-HCl pH 7.5, 50 mM NaCl, 5 mM MgCl2, 0.2 mM EDTA, 1 mM DTT, 1 h at room temperature; 6% native PAGE
# Settings: protein: recombinant; tags: His; label: biotin; blunt
# GLI3 (His-tagged; probably zinc-finger fragment), sequence (P10071 480-632): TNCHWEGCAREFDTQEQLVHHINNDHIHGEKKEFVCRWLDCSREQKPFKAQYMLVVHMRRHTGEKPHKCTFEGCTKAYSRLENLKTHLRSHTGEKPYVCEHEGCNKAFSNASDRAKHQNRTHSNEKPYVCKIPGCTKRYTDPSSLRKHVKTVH
binder,measurement,value
rs72856331-G (dsDNA) DNA 1: CCCCAAGCAGGGGGTGGCCCCTGAG DNA 2: CTCAGGGGCCACCCCCTGCTTGGGG,binding result,binds

# From publication PMC11996917, “An inherited predisposition allele promotes gastric cancer via enhancing deubiquitination-mediated activation of epithelial-to-mesenchymal transition signaling”
